Results: PMC3846889, “Interacting Proteins on Human Spermatozoa: Adaptive Evolution of the Binding of Semenogelin I to EPPIN” (PLoS ONE, 2013)
Substitutions are numbered along the chain they refer to. In names and notes the source's numbering stands.

T1: biotinylated SEMG1^214-42 (human, UniProt P04279-1 26-281, biotin (biotinylated as in ref. 23; sites not stated))
T1 construct: semenogelin I (SEMG1), human, residues G26-R281; The same construct as m2, biotinylated; also called bt-SEMG1; source: E. coli BL21 Star (DE3), purified under denaturing conditions (Ni-NTA), then biotinylated
T1 sequence (looked up): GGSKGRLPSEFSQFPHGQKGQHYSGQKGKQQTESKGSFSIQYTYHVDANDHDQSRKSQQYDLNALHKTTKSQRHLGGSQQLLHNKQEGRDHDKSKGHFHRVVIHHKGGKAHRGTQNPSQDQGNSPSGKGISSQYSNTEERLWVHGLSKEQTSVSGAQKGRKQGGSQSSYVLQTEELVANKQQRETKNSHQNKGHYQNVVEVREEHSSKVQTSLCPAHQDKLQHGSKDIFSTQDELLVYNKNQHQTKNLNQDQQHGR

B1: human recombinant SEMG1^214-42 (wild-type, residues G26-R281) (domain or fragment, UniProt P04279-1 26-281, looked up)
chain: T1 sequence (looked up)
notes: semenogelin I (SEMG1), human, residues G26-R281, cloned into pET100/D-TOPO; also called his-SEMG1; semenogelin I fragment G26-R281; source: E. coli BL21 Star (DE3), purified under denaturing conditions (Ni-NTA); not shown: His6, N-terminal, kept
B2: C239H-SEMG1^214-42 (domain or fragment, human, UniProt P04279-1 26-281, looked up)
chain: T1 sequence (looked up) with C214H
notes: semenogelin I (SEMG1), human, residues G26-R281 with C239H (His239 is the Gorilla residue); Point mutant of m2; source: E. coli BL21 Star (DE3), purified under denaturing conditions (Ni-NTA); not shown: His6, N-terminal, kept
B3: C239R-SEMG1^214-42 (domain or fragment, human, UniProt P04279-1 26-281, looked up)
chain: T1 sequence (looked up) with C214R
notes: semenogelin I (SEMG1), human, residues G26-R281 with C239R (Arg239 is the residue of Macaca mulatta and Papio anubis); Point mutant of m2; source: E. coli BL21 Star (DE3), purified under denaturing conditions (Ni-NTA); not shown: His6, N-terminal, kept
B4: recombinant SEMG1^74-42 (residues R165-R281) (domain or fragment, human, UniProt P04279-1 165-281, looked up)
chain: RLWVHGLSKEQTSVSGAQKGRKQGGSQSSYVLQTEELVANKQQRETKNSHQNKGHYQNVVEVREEHSSKVQTSLCPAHQDKLQHGSKDIFSTQDELLVYNKNQHQTKNLNQDQQHGR
notes: semenogelin I (SEMG1), human, residues R165-R281, in pET100/D-TOPO; source: E. coli BL21 Star (DE3), purified under denaturing conditions (Ni-NTA); not shown: His6, N-terminal, kept
B5: recombinant SEMG1^74-8 (residues R165-Q247) (domain or fragment, human, UniProt P04279-1 165-247, looked up)
chain: RLWVHGLSKEQTSVSGAQKGRKQGGSQSSYVLQTEELVANKQQRETKNSHQNKGHYQNVVEVREEHSSKVQTSLCPAHQDKLQ
notes: semenogelin I (SEMG1), human, residues R165-Q247, in pET100/D-TOPO; also called fragment 74-8; source: E. coli BL21 Star (DE3), purified under denaturing conditions (Ni-NTA); not shown: His6, N-terminal, kept
B6: human recombinant EPPIN (residues P22-P133) (domain or fragment)
chain: not shown
notes: EPPIN, human, residues P22-P133, cloned into pET100/D-TOPO; also called tag-free EPPIN; source: E. coli Rosetta-Gami 2 (DE3), purified under denaturing conditions (Ni-NTA); 6X His-tag removed with enterokinase; not shown: His6, N-terminal, cleaved
B7: C239S-SEMG1^214-42 (domain or fragment, human, UniProt P04279-1 26-281, looked up)
chain: T1 sequence (looked up) with C214S
notes: semenogelin I (SEMG1), human, residues G26-R281 with C239S; Point mutant of m2; source: E. coli BL21 Star (DE3), purified under denaturing conditions (Ni-NTA); not shown: His6, N-terminal, kept
B8: C239D-SEMG1^214-42 (domain or fragment, human, UniProt P04279-1 26-281, looked up)
chain: T1 sequence (looked up) with C214D
notes: semenogelin I (SEMG1), human, residues G26-R281 with C239D; Point mutant of m2; source: E. coli BL21 Star (DE3), purified under denaturing conditions (Ni-NTA); not shown: His6, N-terminal, kept
B9: C239G-SEMG1^214-42 (domain or fragment, human, UniProt P04279-1 26-281, looked up)
chain: T1 sequence (looked up) with C214G
notes: semenogelin I (SEMG1), human, residues G26-R281 with C239G; Point mutant of m2; source: E. coli BL21 Star (DE3), purified under denaturing conditions (Ni-NTA); not shown: His6, N-terminal, kept

molecular target: B6; experiment: cell-based or functional assay; conditions: not given

Binder | inhibition of human sperm motility (normalized iRMI by CASA), concentration-response, EC50 [µM]
QRETKNSHQNKGHYQNVVEVREEHSSKVQTSLCPAHQDKLQ (domain or fragment, human, UniProt P04279-1 207-247, looked up) [recombinant SEMG1^32-8 (residues Q207-Q247)] | 1.75
B1 | 1.69
B2 | 1.08
B3 | 2.21
B4 | 3.56

molecular target: B6; experiment: AlphaScreen or HTRF; competition: EPPIN (10 nM) and bt-SEMG1^214-42 (1 nM) with increasing SEMG1 competitor (10 pM - 8 µM), 30 µl, 15 µg/ml beads; as in ref. 23; conditions: both partners purified

Binder | IC50 [nM]
B5 | 385
B1 | 8.1
B4 | 124

molecular target: T1, biotinylated SEMG1^214-42; experiment: as above; conditions: both partners purified

Binder | binding result
B6 | binds

molecular target: B6; experiment: AlphaScreen or HTRF; direct binding, concentration-response: EPPIN (29 nM) on anti-EPPIN Q20E antibody (2 nM) and Protein A acceptor beads; His-tagged SEMG1 construct (0.04-7.5 µM) on Ni-NTA-chelate donor beads; 10 µg/ml beads, 30 µl; EC50 from the specific signal after 16 h; conditions: both partners purified

Binder | EC50 [nM]
B1 | 23.1
B7 | 564
B2 | 167
B3 | 461
B8 | 96.1
B9 | 83.3
